Measurements taken from US20040267001A1, “Genes encoding baeyer-villiger monooxygenases” (priority 2001, published 2004).

Assay: Conversion of cyclohexanone to caprolactone by E. coli clones expressing Rhodococcus erythropolis AN12 monooxygenases, GC-MS detection
Type: cell-based, Escherichia coli
Details: 500 mg/L cyclohexanone, 0.1 mM IPTG, overnight at 24° C., GC-MS of ethylacetate extract
Protocol: Following amplification, the gene fragments were cloned into pTrcHis-TOPO TA vectors with either an N-terminal tail or C-terminal tail, as provided by the vector sequence. These vectors were transformed into E. coli, with transformants grown in Luria-Bertani broth supplemented with ampicillin (100 ug/ml).
The chnB monooxygenase activity of each expressed enzyme from Example 9 was tested for activity according to its ability to convert cyclohexanone to caprolactone.
Clones containing the full length monooxygenase genes were transferred from LB agar plate to 5 mL of M63 minimal media (GIBCO) containing 10 mM glycerol, 50 ug/mL ampicillin, 0.1 mM IPTG, and 500 mg/L cyclohexanone. In addition to the clones containing full length monooxygenases, a plasmid without an insert and a “no cell” control were also assayed. The encoded monooxygenase sequences were expressed upon addition of IPTG to the culture media. The cultures were incubated overnight at room temperature (24° C.). Samples (1.25 mL) for analysis were taken immediately after inoculation and after overnight incubation; cells were removed by centrifugation (4° C., 13,000 rpm).
Caprolactone formed by the action of the cloned monooxygenase was extracted from the aqueous phase with ethylacetate (1.0 ml aqueous/0.5 mL ethylacetate). Caprolactone was detected by gas chromotagraphy mass spectrometry (GC-MS) analysis, using an Agilent 6890 Gas chromatograph system.
The analysis of the ethylacetate phase was performed by injecting 1 uL of the ethyl acetate phase into the GC. The inlet temperature was 115° C. and the column temperature profile was 50° C. for 4 min and ramped to 250° C. at 20° C./min, for a total run time of 14 min. The compounds were separated with an Hewlet Packard HP-5MS (5% phenyl Methyl Siloxane) column (30 m length, 250 um diameter, and 0.25 um film thickness). The mass spectrometer was run in Electron Ionization mode. The background mass spectra was subtracted from the spectra at the retention time of caprolactone (9.857 min). Presence of caprolactone was confirmed by comparison of the test reactions to an authentic standard obtained from Aldrich Chemical Company (St. Louis, Mo.).
Results of these assays are shown below in Table 7, in terms of the presence or absence of detectable caprolactone formation according to the activity of each expressed BV monooxygenase enzyme.

B1: ORF 17: Rhodococcus erythropolis AN12 ORF 17 chnB monooxygenase, protein SEQ ID NO:40, expressed in E. coli (protein)
chain: MTQHVDVLIIGAGLSGIGAACHLIREQTGSTYAILERRENIGGTWDLFKYPGIRSDSDMLTFGFGFRPWIGTKVLADGASIRDYVEETAKEYGVTDHINFGRKVVAMDFDRTAAQWSVTVLVEATGETETWTANVLVGACGYYNYDKGYRPAFPGEDDFRGQIVHPQHWPEDLDYTGKKVVVIGSGATAITLIPSMAPTAGHVTMLQRSPTWIQALPSEDPVAKGLKLARVPDQIAYKIGRARNIALQRASFQLSRTNPKLAKKLFLAQIRLQLGKNVDLRHFTPSYNPWDQRLCVVPNGDLFKVLKSGKADIVTDRIATFTEKGIVTESGREIEADVIVTATGLNVQILGGATMSIDGEPVKLNETVAYKSVLYSDIPNFLMILGYTNASWTLKADLAASYLCRVLKIMRDRSYTTFEVHAEPEDFAEESLMGGALTSGYIQRGDGEMPRQGARGAWKVVNNYYRDRKLMHDAEIEDGVLQFSKVDIAVVPDSKVASA
modifications: Rhodococcus erythropolis AN12
Formation of Caprolactone (ability to convert cyclohexanone to caprolactone): Detected

B2: ORF 11: Rhodococcus erythropolis AN12 ORF 11 chnB monooxygenase, protein SEQ ID NO:28, expressed in E. coli (protein)
chain: MSPSPLPSVCIIGAGPTGITTAKRMKEFGIPFDCYEASDEVGGNWYYKNPNGMSACYQSLHIDTSKWRLAFEDFPVSADLPDFPHHSELFQYFKDYVEHFGLRESIIFNTSVVAAERDANGLWTVTRSDGEVRTYDVLMVCNGHHWDPNIPDYPGEFDGVLMHSHSYNDPFDPIDMRGKKVVVVGMGNSGLDIASELGQRYLADKLIVSARRGVWVLPKYLGGVPGDKLITPPWMPRGLRLFLSRRFLGKNLGTMEGYGLPKPDHRPFEAHPSASGEFLGRAGSGDITFKPAITKLDGKQVHFADGTAEDVDVVVCATGYNISFPFFDDPNLLPDKDNRFPLFKRMMKPGIDNLFFMGLAQPMPTLVNFAEQQSKLVAAYLTGKYQLPSANEMQEITKADEAYFLAPYYKSPRHTIQLEFDPYVRNMNKEIAKGTKRAAASGNKLPVAARAAAHELEKADRA
modifications: Rhodococcus erythropolis AN12
Formation of Caprolactone (ability to convert cyclohexanone to caprolactone): Detected

B3: ORF 18: Rhodococcus erythropolis AN12 ORF 18 chnB monooxygenase, protein SEQ ID NO:42, expressed in E. coli (protein)
chain: MSSRVNDGHIAIIGTGFSGLCMAIELKKKGIDDFVLYERADDVGGTWRDNTYPGAACDVPSVLYSYSFAQNPNWTRIFPPWSELLDYLRSVAAQYDLLPHIRFGVEVSEMRFDEDRLRWNIQFASGESVTAAVVVNGSGGLSNPYIPQLPGLESFEGAAFHSAKWRHDLDMSGRRVAVIGSGASAIQFVPEIAPHTETLHVFQRSPNWVMPRGDAALSPATRERFSRRPYRQRWLRWRTYWAFEKLASAFLGNRKLVEQYRSQALANLQQQVPDSDLRQKVTPDYDPGCKRRLISDDWYPALQRENVHLNTSGVSEIRPHSIIDSEGAEHEVDTLIFATGFQATSFLAPMKVFGREGVELSDSWREGAATKLGLASAAFPNLWFLNGPNTGLGHNSIIFMIEAQARYIASAVQYMRRKSITALELDRTVQTGSYAATQERMRRTVWASGGCDSWYQSADGRIDTLWPASTIEYWLRTRLFRKSDFHALTTGKG
modifications: Rhodococcus erythropolis AN12
Formation of Caprolactone (ability to convert cyclohexanone to caprolactone): Detected

B4: ORF 9: Rhodococcus erythropolis AN12 ORF 9 chnB monooxygenase, protein SEQ ID NO:24, expressed in E. coli (protein)
chain: MVDIDPTSGPSAGDEETRTRRTRVVVIGAGFGGIGTAVRLKQSGIDDFVVLERAAEPGGTWQVNTYPGAQCDIPSILYSFSFAPNPNWTRLYPLQPEIYDYLRDCVHRFGLAGHFHCNQDVTEASWDEQAQIWRVHTAETVWEAQFLVAATGPFSAPATPDLPGLESFRGQMFHTADWNHDHDLRGERIAVVGTGASAVQIIPRLQPLADTLTVFQRTPTWILPHPDQPMTGWPSALFERVPLTQRLARKGLDLLQEALVPGFVYKPSLLKGLAALGRAHLRRQVRDPELRAKLLPHYAFGCKRPTFSNTYYPALASPNVEVVTDGIVEVQERGVLTADGAFREVDTIVMGTGFRMGDNPSFDTIRGQDGRSLAQTWNGSAEAFLGTTISGFPNFFMILGPNSVVYTSQVVTIEAQVEYIVSCILQMDERGIGSIDVRADVQREFVRATDRRLATSVWNAGGCSSYYLVDGGRNYTFYPGFNRSFRARTKRADLAHYAQVQPVSSAALTTARETVRSR
modifications: Rhodococcus erythropolis AN12
Formation of Caprolactone (ability to convert cyclohexanone to caprolactone): Detected

B5: ORF 16: Rhodococcus erythropolis AN12 ORF 16 chnB monooxygenase, protein SEQ ID NO:38, expressed in E. coli (protein)
chain: VKLPEHVETLIVGAGFAGMGLAARMLRDNRTADVVLIERGADIGGTWRDNTYPGCACDVPTALYSYSFAPSADWSHTFARQPEIYDYLKKVAADTGIGDRVILNCELEAAVWDEDAALWRVRTSLGSLTVKALVAATGALSTPKIPDFPGLDQFSGTTFHSATWNHEHELRGERVAVIGTGASAVQFVPEIADPAAHVTVFQRTPAWVIPRMDRTLPAAQKAVYSRIPATQKVVRGAVYGFRELLGAAMSHATWVLPAFEAAARLHLRRQVKDPELRRKLTPDFTIGCKRMLLSNDWLRTLDRADVSLVDSGLVSVTEGGVVDGHGVEHKVDTIIFATGFTPTEPPVAHLITGKRGETLAAHWNGSPNAYKGTAVSGFPNLFLMYGPNTNLGHSSIVYMLESQAEYVNDALNTMKRERLDALDVNESVQVHYNKGIQHELQHTVWNKGGCSSWYIDPEGRNSVQWPTFTFKFRSLLEHFDRENYSARKIESVQA
modifications: Rhodococcus erythropolis AN12
Formation of Caprolactone (ability to convert cyclohexanone to caprolactone): Detected

B6: ORF 12: Rhodococcus erythropolis AN12 ORF 12 chnB monooxygenase, protein SEQ ID NO:30, expressed in E. coli (protein)
chain: VNNESDHFEVVIIGGGISGIGAAIHLQRLGIDNFALLEKADSLGGTWRANTYPGCACDVPSGLYSYSFAANPDWTRLFAEQPEIREYIENTAGTHGVDKHVRFGVEMLSARWDASQSLWKITTSSGELTARFVIAAAGPWNEPLTPAIPGLEAFEGEVFHSSQWNHDYDLTGKLVAVVGTGASAVQFVPRIVSQVSALHLYQRTAQWVLPKPDHYVPRIERSVMRFVPGAQKALRSIEYGIMEALGLGFRNPWILRIVQKLGSAQLRLQVRDPKLRKALTPDYTLGCKRLLMSNSYYPALGKPNVSVHANAVEQIRGNTVIGADGVEAEVDAIIFGTGFHILDMPIASKVFDGEGRSLDDHWQGSPQAYFGSAVSGFPNAFILLGPSLGTGHTSAFMILEAQLNYVAQAIGHARRHGWQTIDVREEVQAAFNSQVQEALGTTVYNAGGCESYFFDVNGRNSFNWPWSSGAMRRRLRDFDPYAYNHTSNPESDNTPPEPTPSEPTPSEPTPSEPTTSPEPEYTA
modifications: Rhodococcus erythropolis AN12
Formation of Caprolactone (ability to convert cyclohexanone to caprolactone): Detected

B7: ORF 8: Rhodococcus erythropolis AN12 ORF 8 chnB monooxygenase, protein SEQ ID NO:22, expressed in E. coli (protein)
chain: MSTEGKYALIGAGPSGLAGARNLDRAGIAFDGFESHDDVGGLWDIDNPHSTVYESAHLISSKGTTAFAEFPMADSVADYPSHIELAEYFRDYADTHDLRRHFAFGTTVIDVLPVDSLWQVTTRSRSGETSVARYRGVIIANGTLSKPNIPTFRGDFTGTLMHTSEYRSAEIFRGKRVLVIGAGNSGCDIAVDAVHQAECVDLSVRRGYYFVPKYLFGRPSDTLNQGKPLPPWIKQRVDTLLLKQFTGDPVRFGFPAPDYKIYESHPVVNSLILHHIGHGDVHVRADVDRFEGKTVRFVDGSSADYDLVLCATGYHLDYPFIAREDLDWSGAAPDLFLNVASRRHDNLFVLGMVEASGLGWQGRYQQAELVAKLITARTEAPAAAREFSAAAAGPPPDLSGGYKYLKLGRMAYYVNKDAYRSAIRRHIGLLDAALTKGGQ
modifications: Rhodococcus erythropolis AN12
Formation of Caprolactone (ability to convert cyclohexanone to caprolactone): Detected
